Here are results for five molecules from article PMC3763555 (Nucleic Acids Research, 2013).

One series has as its target T1, drRecR (Deinococcus radiodurans, UniProt Q9ZNA2 1-220).
T1 sequence: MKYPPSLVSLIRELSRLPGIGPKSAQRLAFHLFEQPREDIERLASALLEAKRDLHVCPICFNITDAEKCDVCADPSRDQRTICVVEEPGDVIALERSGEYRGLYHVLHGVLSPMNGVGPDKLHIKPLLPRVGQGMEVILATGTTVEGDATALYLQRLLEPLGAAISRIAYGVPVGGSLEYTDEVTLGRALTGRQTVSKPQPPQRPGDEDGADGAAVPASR
The series is described as follows: fluorescence anisotropy.

The target in another series is T2, drRecO Q59E;drRecR (Deinococcus radiodurans;Deinococcus …, UniProt Q9RW50;Q9ZNA2 1-244;1-220, Q59E|).
T2 sequence 1: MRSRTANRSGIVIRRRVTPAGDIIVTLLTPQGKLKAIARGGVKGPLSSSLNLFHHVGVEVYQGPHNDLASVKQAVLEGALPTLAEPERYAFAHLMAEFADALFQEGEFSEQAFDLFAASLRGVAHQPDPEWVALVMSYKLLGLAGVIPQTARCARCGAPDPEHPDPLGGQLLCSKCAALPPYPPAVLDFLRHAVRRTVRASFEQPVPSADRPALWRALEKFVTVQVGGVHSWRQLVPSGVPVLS
T2 sequence 2: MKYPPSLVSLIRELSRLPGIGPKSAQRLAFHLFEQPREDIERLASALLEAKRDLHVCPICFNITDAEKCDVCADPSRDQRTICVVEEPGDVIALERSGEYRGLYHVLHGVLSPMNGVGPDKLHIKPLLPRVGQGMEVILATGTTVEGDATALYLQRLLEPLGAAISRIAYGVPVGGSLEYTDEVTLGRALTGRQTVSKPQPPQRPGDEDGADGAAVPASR
Nature of the series: fluorescence anisotropy.

For a further series, the target named is T3, drRecO;drRecR K23E/R27E (Deinococcus radiodurans;Deinococcus …, UniProt Q9RW50;Q9ZNA2 1-244;1-220, |K23E;R27E).
T3 sequence 1: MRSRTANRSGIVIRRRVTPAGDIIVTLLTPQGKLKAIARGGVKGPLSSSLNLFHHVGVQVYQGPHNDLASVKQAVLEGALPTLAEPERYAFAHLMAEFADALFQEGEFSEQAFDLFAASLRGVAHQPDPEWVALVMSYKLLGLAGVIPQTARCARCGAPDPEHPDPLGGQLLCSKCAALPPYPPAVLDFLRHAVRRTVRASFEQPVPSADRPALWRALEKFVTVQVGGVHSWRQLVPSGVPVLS
T3 sequence 2: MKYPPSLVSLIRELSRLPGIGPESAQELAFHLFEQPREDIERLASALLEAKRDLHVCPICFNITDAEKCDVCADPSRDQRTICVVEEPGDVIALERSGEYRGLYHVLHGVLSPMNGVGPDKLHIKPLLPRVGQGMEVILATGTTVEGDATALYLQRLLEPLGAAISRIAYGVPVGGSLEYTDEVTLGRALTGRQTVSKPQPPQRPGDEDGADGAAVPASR
Nature of the series: fluorescence anisotropy.

Series [1] concerns the target T4, Deinococcus radiodurans RecO, N-terminal hexa-histidine tag (Deinococcus radiodurans, UniProt Q9RW50 1-244).
T4 sequence (looked up): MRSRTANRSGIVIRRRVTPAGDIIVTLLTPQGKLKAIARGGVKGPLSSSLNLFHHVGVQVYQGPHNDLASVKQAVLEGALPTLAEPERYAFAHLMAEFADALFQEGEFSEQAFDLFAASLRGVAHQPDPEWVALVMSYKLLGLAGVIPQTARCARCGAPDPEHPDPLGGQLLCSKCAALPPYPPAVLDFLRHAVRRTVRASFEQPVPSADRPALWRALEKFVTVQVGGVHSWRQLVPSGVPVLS
The series is described as follows: crystal structure.

The series “crystal structure” deals with the molecule itself. The series is described as follows: crystal structure.
The series “SAXS” deals with the molecule itself. The series is described as follows: SAXS.
The target of series [2] is T5, Deinococcus radiodurans RecO, C-terminal hexa-histidine tag (Deinococcus radiodurans, UniProt Q9RW50 1-244).
T5 sequence (looked up): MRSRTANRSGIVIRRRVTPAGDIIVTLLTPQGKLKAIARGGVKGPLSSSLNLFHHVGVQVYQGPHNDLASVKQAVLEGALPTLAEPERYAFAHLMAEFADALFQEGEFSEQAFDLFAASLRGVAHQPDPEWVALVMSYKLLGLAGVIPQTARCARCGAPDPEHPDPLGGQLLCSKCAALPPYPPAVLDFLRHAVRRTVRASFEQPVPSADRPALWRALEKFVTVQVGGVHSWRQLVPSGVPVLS
Nature of the series: SAXS.

A further series has as its target T6, drRecO K72E/Q73E;drRecR (Deinococcus radiodurans;Deinococcus …, UniProt Q9RW50;Q9ZNA2 1-244;1-220, K72E;Q73E|).
T6 sequence 1: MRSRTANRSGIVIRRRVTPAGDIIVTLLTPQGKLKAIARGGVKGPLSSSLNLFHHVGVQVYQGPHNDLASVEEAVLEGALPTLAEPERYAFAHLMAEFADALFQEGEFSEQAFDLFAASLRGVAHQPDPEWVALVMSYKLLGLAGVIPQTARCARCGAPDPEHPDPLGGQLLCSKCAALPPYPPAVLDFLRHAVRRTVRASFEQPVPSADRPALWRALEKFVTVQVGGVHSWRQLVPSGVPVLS
T6 sequence 2: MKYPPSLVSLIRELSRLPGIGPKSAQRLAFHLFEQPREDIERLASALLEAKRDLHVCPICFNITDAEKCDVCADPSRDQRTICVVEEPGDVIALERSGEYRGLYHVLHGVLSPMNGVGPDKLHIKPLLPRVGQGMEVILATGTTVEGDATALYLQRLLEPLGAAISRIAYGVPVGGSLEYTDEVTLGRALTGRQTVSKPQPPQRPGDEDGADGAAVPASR
Nature of the series: fluorescence anisotropy.

Another series has as its target T7, drRecO K43E/K72E;drRecR (Deinococcus radiodurans;Deinococcus …, UniProt Q9RW50;Q9ZNA2 1-244;1-220, K43E;K72E|).
T7 sequence 1: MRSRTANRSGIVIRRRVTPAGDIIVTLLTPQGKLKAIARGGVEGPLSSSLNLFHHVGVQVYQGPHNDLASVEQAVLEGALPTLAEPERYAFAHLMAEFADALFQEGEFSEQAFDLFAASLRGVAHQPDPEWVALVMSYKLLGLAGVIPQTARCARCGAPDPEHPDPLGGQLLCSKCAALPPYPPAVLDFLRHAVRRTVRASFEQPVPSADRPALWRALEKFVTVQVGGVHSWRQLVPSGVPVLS
T7 sequence 2: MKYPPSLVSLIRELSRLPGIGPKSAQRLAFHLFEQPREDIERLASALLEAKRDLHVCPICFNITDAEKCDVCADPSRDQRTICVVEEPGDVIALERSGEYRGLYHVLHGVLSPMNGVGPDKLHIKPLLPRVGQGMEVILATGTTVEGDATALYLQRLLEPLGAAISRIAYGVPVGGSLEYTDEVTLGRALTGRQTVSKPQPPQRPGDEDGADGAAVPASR
The series is described as follows: fluorescence anisotropy.

A further series deals with T8, drRecO (Deinococcus radiodurans, UniProt Q9RW50 1-244).
T8 sequence: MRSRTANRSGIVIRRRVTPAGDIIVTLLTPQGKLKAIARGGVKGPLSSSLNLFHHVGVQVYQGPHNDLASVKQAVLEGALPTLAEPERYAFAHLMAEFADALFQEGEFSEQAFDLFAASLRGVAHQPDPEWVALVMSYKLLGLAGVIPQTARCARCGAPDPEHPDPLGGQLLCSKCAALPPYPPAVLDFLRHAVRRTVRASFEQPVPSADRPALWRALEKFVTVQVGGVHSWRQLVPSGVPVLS
Nature of the series: fluorescence anisotropy.

B1: 50mer dsDNA (dsDNA)
DNA 1: GACTACGTACTGTTACGGCTCCATCTCTACCGCAATCAGGCCAGATCTGC
DNA 2: GCAGATCTGGCCTGATTGCGGTAGAGATGGAGCCGTAACAGTACGTAGTC
As for B1, the binding result with drRecR, with drRecO Q59E;drRecR and with drRecO;drRecR K23E/R27E was “no binding” in each case.

B2: Deinococcus radiodurans RecR K23A/R27A double mutant (natural protein, UniProt Q9ZNA2 1-220, looked up)
chain: MKYPPSLVSLIRELSRLPGIGPASAQALAFHLFEQPREDIERLASALLEAKRDLHVCPICFNITDAEKCDVCADPSRDQRTICVVEEPGDVIALERSGEYRGLYHVLHGVLSPMNGVGPDKLHIKPLLPRVGQGMEVILATGTTVEGDATALYLQRLLEPLGAAISRIAYGVPVGGSLEYTDEVTLGRALTGRQTVSKPQPPQRPGDEDGADGAAVPASR
Turning to B2, the binding result in series [1] was “binds”. Moreover, the “stoichiometry N” value in the series “crystal structure” was 4.

B3: Deinococcus radiodurans RecR, full length, without tag (natural protein, UniProt Q9ZNA2 1-220, looked up)
chain: MKYPPSLVSLIRELSRLPGIGPKSAQRLAFHLFEQPREDIERLASALLEAKRDLHVCPICFNITDAEKCDVCADPSRDQRTICVVEEPGDVIALERSGEYRGLYHVLHGVLSPMNGVGPDKLHIKPLLPRVGQGMEVILATGTTVEGDATALYLQRLLEPLGAAISRIAYGVPVGGSLEYTDEVTLGRALTGRQTVSKPQPPQRPGDEDGADGAAVPASR
As for B3, the “stoichiometry N” value in “SAXS” came out at 2.

B4: Deinococcus radiodurans RecR, full length, C-terminal hexa-histidine tag (natural protein, UniProt Q9ZNA2 1-220, looked up)
chain: MKYPPSLVSLIRELSRLPGIGPKSAQRLAFHLFEQPREDIERLASALLEAKRDLHVCPICFNITDAEKCDVCADPSRDQRTICVVEEPGDVIALERSGEYRGLYHVLHGVLSPMNGVGPDKLHIKPLLPRVGQGMEVILATGTTVEGDATALYLQRLLEPLGAAISRIAYGVPVGGSLEYTDEVTLGRALTGRQTVSKPQPPQRPGDEDGADGAAVPASR
As to B4, the binding result in series [2] is given as “binds”.
Consider TTTTTTTTTTTTTTTTTTTTTTTTTTTTTTTTTTTTTTTTTTTTTTTTTT (ssDNA) [50mer poly(dT) ssDNA], for which the binding result was “binds” with drRecO K72E/Q73E;drRecR; “binds” with drRecO K43E/K72E;drRecR; “no binding” with drRecR; “no binding” with drRecO Q59E;drRecR; “no binding” with drRecO;drRecR K23E/R27E. In addition, in the series with drRecO, the Kd worked out at 8.7 µM.
